{
  "source": "paper PMC3646996",
  "about": "(Journal of molecular biology, 2013)",
  "key": {"PhoB (Escherichia coli) [1]": {"target": "PhoB (Escherichia coli) (UniProt P0AFJ5)", "sequence (P0AFJ5 whole entry)": "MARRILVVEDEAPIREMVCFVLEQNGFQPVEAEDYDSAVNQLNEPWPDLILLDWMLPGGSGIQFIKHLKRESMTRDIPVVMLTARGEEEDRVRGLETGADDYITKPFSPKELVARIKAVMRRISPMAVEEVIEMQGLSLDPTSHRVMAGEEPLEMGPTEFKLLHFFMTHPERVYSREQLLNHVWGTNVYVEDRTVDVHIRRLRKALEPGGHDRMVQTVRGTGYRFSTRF", "conditions": "cited from earlier work"}, "PhoB (Escherichia coli) [2]": {"target": "PhoB (Escherichia coli) (UniProt P0AFJ5)", "conditions": "cited from earlier work", "remark": "listed apart in the source"}, "AUC [3]": {"target": "the molecule itself", "assay": "AUC"}, "AUC [4]": {"target": "the molecule itself", "assay": "AUC", "remark": "listed apart in the source"}, "OmpR": {"target": "T1, OmpR (Escherichia coli, UniProt P0AA16 1-239)", "T1 sequence": "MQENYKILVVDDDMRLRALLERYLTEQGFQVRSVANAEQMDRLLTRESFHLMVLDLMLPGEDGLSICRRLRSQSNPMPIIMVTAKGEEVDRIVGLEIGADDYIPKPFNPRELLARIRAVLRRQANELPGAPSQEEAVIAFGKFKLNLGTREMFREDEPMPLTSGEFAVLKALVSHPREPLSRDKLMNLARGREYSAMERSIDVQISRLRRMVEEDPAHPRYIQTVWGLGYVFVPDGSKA", "assay": "ITC"}},
  "note": "Read-outs that look alike come from different tables or passages of the source.",
  "data": [
    {"molecule": "PhoB (from UniProt P0AFJ5)", "values": [
      {"measurement": "Kd", "setting": "PhoB (Escherichia coli) [1]", "value": 380, "unit": "µM"},
      {"measurement": "Kd", "setting": "PhoB (Escherichia coli) [2]", "value": 5.1, "unit": "µM"}
    ]},
    {"molecule": "OmpR (unphosphorylated, untreated) (natural protein, Escherichia coli, UniProt P0AA16 1-239, looked up) MQENYKILVVDDDMRLRALLERYLTEQGFQVRSVANAEQMDRLLTRESFHLMVLDLMLPGEDGLSICRRLRSQSNPMPIIMVTAKGEEVDRIVGLEIGADDYIPKPFNPRELLARIRAVLRRQANELPGAPSQEEAVIAFGKFKLNLGTREMFREDEPMPLTSGEFAVLKALVSHPREPLSRDKLMNLARGREYSAMERSIDVQISRLRRMVEEDPAHPRYIQTVWGLGYVFVPDGSKA", "values": [
      {"measurement": "Kd", "setting": "AUC [3]", "value": 1.1, "unit": "mM"},
      {"measurement": "stoichiometry N", "setting": "AUC [3]", "value": 2}
    ]},
    {"molecule": "BeF3−-treated OmpR (natural protein, Escherichia coli, UniProt P0AA16 1-239, looked up, BeF3− (noncovalent small molecule phosphoryl analog); residue not given) MQENYKILVVDDDMRLRALLERYLTEQGFQVRSVANAEQMDRLLTRESFHLMVLDLMLPGEDGLSICRRLRSQSNPMPIIMVTAKGEEVDRIVGLEIGADDYIPKPFNPRELLARIRAVLRRQANELPGAPSQEEAVIAFGKFKLNLGTREMFREDEPMPLTSGEFAVLKALVSHPREPLSRDKLMNLARGREYSAMERSIDVQISRLRRMVEEDPAHPRYIQTVWGLGYVFVPDGSKA", "values": [
      {"measurement": "Kd", "setting": "AUC [4]", "value": 7, "unit": "µM"},
      {"measurement": "stoichiometry N", "setting": "AUC [4]", "value": 2}
    ]},
    {"molecule": "F1 (dsDNA) DNA 1: GCTTTACTTTTGGTTACATATTTCG DNA 2: CGAAATATGTAACCAAAAGTAAAGC", "values": [
      {"measurement": "Kd", "setting": "OmpR", "value": 2000, "unit": "nM"}
    ]}
  ]
}
